Data as given in US20170327594A1 (UNIVERSIT T STUTTGART, published 2017).

Columns and labels:
[1] = target: T1, TNFR2-Fc fusion protein (Enbrel) (UniProt P20333 23-257); assay: ELISA on coated TNFR2-Fc (Enbrel)
T1 construct: Commercial product Enbrel, coated at 1 ug/ml; not shown: Fc part of Enbrel
T1 sequence (looked up): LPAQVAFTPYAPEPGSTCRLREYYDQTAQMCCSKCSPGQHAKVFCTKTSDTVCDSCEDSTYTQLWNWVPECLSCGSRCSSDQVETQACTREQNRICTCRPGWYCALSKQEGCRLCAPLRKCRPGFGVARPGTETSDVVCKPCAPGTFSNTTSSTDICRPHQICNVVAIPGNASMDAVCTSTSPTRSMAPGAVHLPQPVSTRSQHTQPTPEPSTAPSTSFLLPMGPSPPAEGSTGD
Method: FIG. 36: a-c) Purified TNF variants (a: MHD2-scTNFR2, b: EHD2-scTNFR2 with a 16 aa linker between EHD2 and scTNFR2 as well as c: EHD2-scTNFR2 with a 28 aa linker between EHD2 and scTNFR2) were analyzed by 8% SDS-PAGE under reducing (+2-ME) or non-reducing (−2-ME) conditions and stained with Coomassie. d) Binding studies with TNFR2-Fc fusion protein. Plates were coated with 1 μg/ml TNFR2-Fc fusion protein (Enbrel). TNF fusion proteins were incubated for 1 h at RT and bound TNF fusion proteins were detected using HRP-conjugated anti-TNF antibodies and TMB substrate (n=2).

HER2-Fc fusion protein = target: T2, HER2-Fc fusion protein (UniProt P04626 23-652, limits assumed); assay: ELISA on immobilized HER2-Fc
T2 construct: extracellular domain; also called Fc fusion protein of the extracellular region of HER2; not shown: Fc part

[2] = target: T3, recombinant TRAIL-R1 (receptor-Fc fusion protein) (UniProt O00220 24-239, limits assumed); assay: ELISA on recombinant receptor-Fc
T3 construct: also called TRAIL receptor 1; not shown: Fc part

EGFR-Fc fusion protein = target: T4, EGFR-Fc fusion protein (UniProt P00533 25-645, limits assumed); assay: ELISA on immobilized EGFR-Fc
T4 construct: extracellular domain; also called Fc fusion protein of the extracellular region of EGFR; immobilized EGFR; not shown: Fc part

CEA = target: T5, CEA (UniProt P06731 35-685, limits assumed); assay: ELISA on immobilized CEA
T5 construct: also called immobilized CEA; carcinoembryonic antigen
T5 sequence (looked up): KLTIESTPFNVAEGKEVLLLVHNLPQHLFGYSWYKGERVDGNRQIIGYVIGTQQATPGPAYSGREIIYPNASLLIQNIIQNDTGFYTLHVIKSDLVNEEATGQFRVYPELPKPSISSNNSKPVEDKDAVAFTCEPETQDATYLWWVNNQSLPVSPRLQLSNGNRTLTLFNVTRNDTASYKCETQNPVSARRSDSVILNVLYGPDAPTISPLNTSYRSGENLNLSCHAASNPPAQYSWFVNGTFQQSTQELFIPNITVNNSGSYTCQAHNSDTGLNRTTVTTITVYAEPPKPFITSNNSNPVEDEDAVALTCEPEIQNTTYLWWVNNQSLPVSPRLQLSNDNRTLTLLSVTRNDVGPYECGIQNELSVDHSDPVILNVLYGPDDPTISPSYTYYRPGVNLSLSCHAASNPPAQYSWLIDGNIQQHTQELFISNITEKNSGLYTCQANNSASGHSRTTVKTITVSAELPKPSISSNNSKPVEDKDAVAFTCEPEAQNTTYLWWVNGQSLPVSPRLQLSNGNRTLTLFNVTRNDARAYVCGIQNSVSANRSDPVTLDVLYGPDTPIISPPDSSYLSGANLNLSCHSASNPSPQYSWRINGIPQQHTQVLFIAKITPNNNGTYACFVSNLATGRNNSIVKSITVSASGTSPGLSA
Text: Bound antibodies were detected with an HRP-conjugated anti-His-tag antibody.
A bispecific single-chain diabody (scDb)-EHD2 fusion protein was generated by fusing a scDb directed against CEA and human CD3 to the N-terminus of the EHD2 (FIG. 27a, b). The construct was cloned into mammalian expression vector pSecTagA and produced in stably transfected HEK293 cells. Protein was purified from the cell culture supernatant by immobilized metal affinity chromatography.

B1: EHD2-scTNFR2-L16aa (ligand)
chain: DAAQPAGGGAAAHHHHHHGGTGGGGSGGKLGGSGGDFTPPTVKILQSSCDGGGHFPPTIQLLCLVSGYTPGTINITWLEDGQVMDVDLSTASTTQEGELASTQSELTLSQKHWLSDRTYTCQVTYQGHTFEDSTKKCADSNGGGSGGGTGSEFLASSRTPSDKPVAHVVANPQAEGQLQWLNRRANALLANGVELRDNQLVVPSEGLYLIYSQVLFKGQGCPSTHVLLTHTISRIAVSYQTKVNLLSAIKSPCQRETPEGAEAKPWYEPIYLGGVFQLEKGDRLSAEINRPDYLNFRESGQVYFGIIALGGGGSSSRTPSDKPVAHVVANPQAEGQLQWLNRRANALLANGVELRDNQLVVPSEGLYLIYSQVLFKGQGCPSTHVLLTHTISRIAVSYQTKVNLLSAIKSPCQRETPEGAEAKPWYEPIYLGGVFQLEKGDRLSAEINRPDYLNFRESGQVYFGIIALGGGGSSSRTPSDKPVAHVVANPQAEGQLQWLNRRANALLANGVELRDNQLVVPSEGLYLIYSQVLFKGQGCPSTHVLLTHTISRIAVSYQTKVNLLSAIKSPCQRETPEGAEAKPWYEPIYLGGVFQLEKGDRLSAEINRPDYLNFRESGQVYFGIIAL
notes: Dimer of the TNFR2-selective single-chain TNF mutant (D143N/A145R) fused to EHD2, 16 aa linker; also called EHD2-scTNFR2 with a 16 aa linker between EHD2 and scTNFR2
[1]
  binding result: binds

B2: EHD2-scTNFR2-L28aa (ligand)
chain: DAAQPAGGGAAAHHHHHHGGTGGGGSGGKLGGSGGDFTPPTVKILQSSCDGGGHFPPTIQLLCLVSGYTPGTINITWLEDGQVMDVDLSTASTTQEGELASTQSELTLSQKHWLSDRTYTCQVTYQGHTFEDSTKKCADSNGGGSGGGSGGGSGGGSGGGSGGSEFLASSRTPSDKPVAHVVANPQAEGQLQWLNRRANALLANGVELRDNQLVVPSEGLYLIYSQVLFKGQGCPSTHVLLTHTISRIAVSYQTKVNLLSAIKSPCQRETPEGAEAKPWYEPIYLGGVFQLEKGDRLSAEINRPDYLNFRESGQVYFGIIALGGGGSSSRTPSDKPVAHVVANPQAEGQLQWLNRRANALLANGVELRDNQLVVPSEGLYLIYSQVLFKGQGCPSTHVLLTHTISRIAVSYQTKVNLLSAIKSPCQRETPEGAEAKPWYEPIYLGGVFQLEKGDRLSAEINRPDYLNFRESGQVYFGIIALGGGGSSSRTPSDKPVAHVVANPQAEGQLQWLNRRANALLANGVELRDNQLVVPSEGLYLIYSQVLFKGQGCPSTHVLLTHTISRIAVSYQTKVNLLSAIKSPCQRETPEGAEAKPWYEPIYLGGVFQLEKGDRLSAEINRPDYLNFRESGQVYFGIIAL
notes: Dimer of the TNFR2-selective single-chain TNF mutant (D143N/A145R) fused to EHD2, 28 aa linker; also called EHD2-scTNFR2 with a 28 aa linker between EHD2 and scTNFR2
[1]
  binding result: binds

B3: EHD2-scTRAIL (ligand)
chain: DYKDDDDKGGGGSAAQPADFTPPTVKILQSSCDGGGHFPPTIQLLCLVSGYTPGTINITWLEDGQVMDVDLSTASTTQEGELASTQSELTLSQKHWLSDRTYTCQVTYQGHTFEDSTKKCADSNGGSGGEFTRGTSEETISTVQEKQQNISPLVRERGPQRVAAHITGTRGRSNTLSSPNSKNEKALGRKINSWESSRSGHSFLSNLHLRNGELVIHEKGFYYIYSQTYFRFQEEIKENTKNDKQMVQYIYKYTSYPDPILLMKSARNSCWSKDAEYGLYSIYQGGIFELKENDRIFVSVTNEHLIDMDHEASFFGAFLVGGGGSGGGSTSEETISTVQEKQQNISPLVRERGPQRVAAHITGTRGRSNTLSSPNSKNEKALGRKINSWESSRSGHSFLSNLHLRNGELVIHEKGFYYIYSQTYFRFQEEIKENTKNDKQMVQYIYKYTSYPDPILLMKSARNSCWSKDAEYGLYSIYQGGIFELKENDRIFVSVTNEHLIDMDHEASFFGAFLVGGGGSGGGSTSEETISTVQEKQQNISPLVRERGPQRVAAHITGTRGRSNTLSSPNSKNEKALGRKINSWESSRSGHSFLSNLHLRNGELVIHEKGFYYIYSQTYFRFQEEIKENTKNDKQMVQYIYKYTSYPDPILLMKSARNSCWSKDAEYGLYSIYQGGIFELKENDRIFVSVTNEHLIDMDHEASFFGAFLVG
notes: Bivalent homodimer of single-chain TRAIL at the C-terminus of EHD2, FLAG-tagged
HER2-Fc fusion protein
  binding result: no binding
[2]
  binding result: binds
EGFR-Fc fusion protein
  binding result: no binding

B4: Anti-CEAxCD3 scDb-EHD2 (bispecific antibody)
chain: DAAQPAMAQVKLQQSGAELVRSGTSVKLSCTASGFNIKDSYMHWLRQGPEQGLEWIGWIDPENGDTEYAPKFQGKATFTTDTSSNTAYLQLSSLTSEDTAVYYCNEGTPTGPYYFDYWGQGTTVTVSSGGGGSDIQMTQSPSSLSASVGDRVTITCRASQDIRNYLNWYQQKPGKAPKLLIYYTSRLESGVPSRFSGSGSGTDYTLTISSLQPEDFATYYCQQGNTLPWTFGQGTKVEIKRGGGGSGGRASGGGGSEVQLVESGGGLVQPGGSLRLSCAASGYSFTGYTMNWVRQAPGKGLEWVALINPYKGVSTYNQKFKDRFTISVDKSKNTAYLQMNSLRAEDTAVYYCARSGYYGDSDWYFDVWGQGTLVTVSSGGGGSDIELTQSPAIMSASPGEKVTITCSASSSVSYMHWFQQKPGTSPKLWIYSTSNLASGVPARFSGSGSGTSYSLTISRMEAEDAATYYCQQRSSYPLTFGAGTKLELKRGSLGGSGGDFTPPTVKILQSSCDGGGHFPPTIQLLCLVSGYTPGTINITWLEDGQVMDVDLSTASTTQEGELASTQSELTLSQKHWLSDRTYTCQVTYQGHTFEDSTKKCADSNGGGSGGGTGSEFAAAHHHHHH
notes: Homodimer: scDb against CEA and human CD3 at the N-terminus of EHD2, His6; also called bispecific single-chain diabody (scDb)-EHD2 fusion protein
CEA
  binding result: binds

B5: Anti-CEA scFv-EHD2 (scFv)
chain: DAAQPAMAQVKLQQSGAELVRSGTSVKLSCTASGFNIKDSYMHWLRQGPEQGLEWIGWIDPENGDTEYAPKFQGKATFTTDTSSNTAYLQLSSLTSEDTAVYYCNEGTPTGPYYFDYWGQGTTVTVSSGGGGSGGGGSGGGGSDIELTQSPAIMSASPGEKVTITCSASSSVSYMHWFQQKPGTSPKLWIYSTSNLASGVPARFSGSGSGTSYSLTISRMEAEDAATYYCQQRSSYPLTFGAGTKLELKRGSLGGSGGDFTPPTVKILQSSCDGGGHFPPTIQLLCLVSGYTPGTINITWLEDGQVMDVDLSTASTTQEGELASTQSELTLSQKHWLSDRTYTCQVTYQGHTFEDSTKKCADSNGGGSGGGTGSEFAAAHHHHHH
notes: Bivalent homodimer, His6; also called scFv-EHD2 fusion protein directed against CEA
CEA
  binding result: binds

B6: MHD2-scTNFR2 (ligand)
chain: DAAQPAGGGAAAHHHHHHGGTGGGGSGGKLGGSGGAELPPKVSVFVPPRDGFFGNPRKSKLICQATGFSPRQIQVSWLREGKQVGSGVTTDQVQAEAKESGPTTYKVTSTLTIKESDWLGQSMFTCRVDHRGLTFQQNASSMCVPDGGGSGGGTGSEFLASSRTPSDKPVAHVVANPQAEGQLQWLNRRANALLANGVELRDNQLVVPSEGLYLIYSQVLFKGQGCPSTHVLLTHTISRIAVSYQTKVNLLSAIKSPCQRETPEGAEAKPWYEPIYLGGVFQLEKGDRLSAEINRPDYLNFRESGQVYFGIIALGGGGSSSRTPSDKPVAHVVANPQAEGQLQWLNRRANALLANGVELRDNQLVVPSEGLYLIYSQVLFKGQGCPSTHVLLTHTISRIAVSYQTKVNLLSAIKSPCQRETPEGAEAKPWYEPIYLGGVFQLEKGDRLSAEINRPDYLNFRESGQVYFGIIALGGGGSSSRTPSDKPVAHVVANPQAEGQLQWLNRRANALLANGVELRDNQLVVPSEGLYLIYSQVLFKGQGCPSTHVLLTHTISRIAVSYQTKVNLLSAIKSPCQRETPEGAEAKPWYEPIYLGGVFQLEKGDRLSAEINRPDYLNFRESGQVYFGIIAL
[1]
  binding result: binds
